Experimental data: the RNAGym collection of RNA variant scans (doi:10.1073/pnas.2313332121)

B1: TPR t1 (parent)
chain: GACCAAUCUGCCCUCAGAGCUCGAGAACAUCUUCGGAUGCAGAGGAGGCAGGCUUCGGUGGCGCGAUAGCGCCAACGUCCUCAACCUCCAAUGCAUCCCACCACAUGAUGAUGCCUGAAGAGCCUUGGUUUUUUG

Variants of: B1
Experiment: polymerase ribozyme fitness, log enrichment relative to wild type (log ratio); higher = more active; in vitro selection for triplet polymerase activity
Procedure, shortened: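 Fitness compares each genotype's enrichment to that of the wild type on a logarithmic scale, averaging replicates with inverse-variance weights. The logarithm is base 2. Enrichment came from Illumina sequencing of input and output libraries after one triplicate round of in vitro selection, which included frozen incubation at −7 °C, of PCR-built, transcribed mutant libraries of each subunit of a heterodimeric triplet polymerase ribozyme. Only genotypes with ≥10 input reads and ≥1 read per output were kept.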

Row | Variant | polymerase ribozyme fitness (log ratio)
1 | G45U G47A G63U C82G G93U G117C A119G | -7.49
2 | G47U G48A G52U | -2.97
3 | G47U G61U | -2.36
4 | G47U G61C | -2.36
5 | G47U C101A C104U | -2.34
6 | A46C U96G C104U U131C | -1.75
7 | G47A U96G G120U | -1.94
8 | G47A G48C G52U C79U | -3.46
9 | A46U C97A C99G G117C | -7.9
10 | G47C C56A G110U | -5.35
11 | A46U G93U | -2.06
12 | G47C G117U | -4.33
13 | A46U C64G C123G C124A | -5.93
14 | G47U A95U | -1.91
15 | A46U U96C C115U | -2.77
16 | A46U G107C | -6.11
17 | G47C G61A | -0.75
18 | G48A G61A U130A | -0.668
19 | A46C G93U U106A | -1.93
20 | A46C G58C U59A C88G | -2.01
21 | G47A G69C C101U G122A | -3.07
22 | G47A G51C C98A C102U C115U G127U | -7.84
23 | G47C C102U U112C | -1.55
24 | G45U U92A | -3.79

Row | Variant | polymerase ribozyme fitness (log ratio)
25 | A46U C89U G135U | -4.54
26 | G48A C56U C86A C94A A111C | -2.79
27 | A46U G63A | -1.91
28 | G48A G61A | -0.0923
29 | G47A G113U | -2.8
30 | G47A G113C | -3.08
31 | G48A G63A U133G | -1.13
32 | G47U U125G | -2.32
33 | G48A G61U U78C | -0.213
34 | G48A G120C | 0.921
35 | G47A G69A G77C C99U C114G | -6.85
36 | A46U C70U C79G U130C | -4.73
37 | G47U C64U | -1.51
38 | G48A G63A | -1.14
39 | G47A A68G | -3.62
40 | G45U G93U G120A | -0.614
41 | A46U G69U A91U A103G U106A C114U U131G | -5.56
42 | A46U G52C U87G G135U | -1.01
43 | G47C C49U | -2.12
44 | G47U C56U C72U U116C | -3.11
45 | A46U C49G C56U C76U U87A | -1.97
46 | G47U G61A C85A | -1.18
47 | G47C G58A A121G G135U | 0.038
48 | A46G C70A | -1.26

Row | Variant | polymerase ribozyme fitness (log ratio)
49 | A46G C70G | -4.8
50 | A46G C97U | -1.05
51 | A46G G47A U59A | -0.512
52 | G45U U96G | -1.78
53 | G45U U55C | -1.88
54 | G47U A105C U106A | -1.48
55 | G48A C104U | -1.25
56 | A46U G71U G110A | -2.84
57 | G47A A121U | 1.38
58 | G47A G61A A84C | -1.29
59 | A46C C56G | -1.37
60 | G48A C85U A105U | -2.08
61 | A46U C56G G61U A105U C123U | -5.93
62 | A46U U106A C124G U129G | -0.0518
63 | G47A G52A G61C G120A | -4.97
64 | G48A C62A | -2.76
65 | G47U C53A C70U U126C | -2.43
66 | A46U A121C | 1.4
67 | G47U G52A C73A C86A | -0.962
68 | G45U U78C | -1.46
69 | A46G A95G | -0.108
70 | G48A C64U U78C G107U | -6.15
71 | A46U C49U G58C G60A A95C U112G U132A | -3.98
72 | G47A G60C G69U A119U | -2.55

Row | Variant | polymerase ribozyme fitness (log ratio)
73 | A46G G113A | -1.46
74 | G45U G61U | -0.836
75 | G45U C70U C85U C89A C104U | -5.61
76 | G47C G71A | -3.14
77 | G47A G93U G113U C123U G135U | -6.04
78 | G47C C62G A118G | -3.74
79 | G48A G69C | -1.33
80 | G48A G69U | 1.02
81 | G47U C49U C62U G117U | -5.19
82 | G47U G60A G117A | -3.41
83 | G47U C72U | -1.71
84 | G45U C56U U81G C101G C114A | -5.46
85 | A46U C62U G113A | -2.45
86 | A46U G60C U96C C123G | 0.53
87 | G47C A100U | -2.4
88 | G47A C53U U54C | -1.11
89 | G48A G63U C82G A91U G117C | -5.43
90 | A46U G117C | -1.89
91 | G45U G120C | -0.784
92 | G45U G120A | -0.795
93 | G47U C62G | -3.76
94 | A46U G60C G93C G113C A121C | -4.8
95 | G48A C82A | -1.42
96 | G48A C82G | -0.457

Row | Variant | polymerase ribozyme fitness (log ratio)
97 | G45U C72A U81C A84C C104U G110U U131C | -4.32
98 | G47A G48A C53A G127A | -3.92
99 | A46U G71U A118G | -0.0825
100 | G47U C70U C88U | -3.39
101 | G48A C85G C89A U96C | -2.26
102 | G47U C64A U116G C124U | -6.49
103 | A46U G57U C94A | -2.21
104 | G47U G120C U131G | 0.253
105 | A46C C76A C86U C104U | -0.577
106 | G45U U112A G128C | -2.89
107 | G47U U54C | -3.33
108 | G45U C56A U59G C101G G120A G128A G135A | -3.75
109 | G48A C89U C124U | 0.551
110 | G47A C62U U112C C114U A118G | -3.76
111 | G47U C85U | -1.98
112 | G47A U59G A91U G113A | -2.02
113 | G47U C64U A121U | 0.804
114 | A46U G127C | -2.68
115 | A46U G127U | -2.62
116 | G47C C53U | -0.348
117 | G48A C56U G93C C94G | -5.23
118 | A46G C53U G113A | -2.14
119 | A46U C89U | -2.66
120 | G47U G128U | -2.73

Row | Variant | polymerase ribozyme fitness (log ratio)
121 | G45U C72G A91C | -2.3
122 | A46U G63A C85G A121C | -1.37
123 | G48A C56U C82U | -0.312
124 | G45U C115A G128U | -4.73
125 | G48A C88G | -0.075
126 | G47A U54C G77A C82A G110A C123A | -3.8
127 | G47C C115A | -2.22
128 | G48A C73A U92A C115U | -5.26
129 | G48A A75G G120A | 0.0402
130 | G45U G52U | -2.65
131 | G47U A118G U130G | -3.01
132 | A46C U109C | -6.47
133 | G47U G120C | -0.748
134 | G47U A66C A95C | -4.27
135 | G48A C85G U106C | -1.25
136 | G47A C88G U112G U133A | -5.65
137 | A46C C56A C85G | -5.4
138 | A46G G47U A119G | -0.516
139 | A46C C76A | -0.908
140 | G48A A105C G120A A121C G122U U129A | -3.55
141 | G47U C53G C62A | -2.11
142 | G47U C49U C62U | -4.79
143 | G47A G61A | -2.4
144 | G48A C56U C70A G93A | -5.28

Row | Variant | polymerase ribozyme fitness (log ratio)
145 | G47U G135C | -1.39
146 | A46U A83G G110A | -3.02
147 | A46G U54G | 0.0807
148 | A46U U96A | -1.81
149 | G48A C86U | -0.5
150 | G48A C86A | -0.909
151 | G47A G110A | -1.67
152 | G48A A50G G69U C76A U78C | -2.05
153 | A46U C79U C82U G110U G135A | -3.2
154 | G45U C115U | -2.6
155 | G48A G60A U78C U109A G110U | -4.9
156 | G45U C72U C88U G113U U129A | -5.57
157 | A46U G52U A66G C104U G110A | -5.89
158 | G45U C62U G107U U116C | -5.58
159 | G45U G61U G63C A91C A95G G110C | -4.25
160 | G47U G51U C124U | -3.46
161 | G47A C94A | -1.89
162 | G47A C72U A121U | 1.16
163 | A46U C86A A118G | -0.968
164 | G47A G117C | -4.01
165 | G47A C56G | -1.29
166 | G47A C56U | 0.000278
167 | G45U G48A U132C | -1.5
